Test results as given in US20250313621A1 (NXERA PHARMA UK, published 2025).

Target: T1, Cynomolgus PAR2 on BacMam-infected HEK293 cells (cynomolgus)
T1 construct: whole, on cells; also called cyno PAR-2; Cyno PAR2
Experiment: flow cytometry on HEK293F-cynoPAR2 (3.0E+06 cells/mL, w/ NaN3), overnight at about 5 C, S/BG [continued]

| Binder | EC50 (read off the curve) [nM] |
| --- | --- |
| Fab Y022870 (Fab, V domains shown) VH: EVQLLESGGGLVQPGGSLRLSCAASGFSFSRYAITWVRQAPGKGLEWVSTISALGLETYYAESVRGRFTISRDNSKNTLYLQMNSLRAEDTAVYYCARGFHYTHSGKRYYYPFDIWGQGTLVTVSS VL: QSALTQPASVSGSPGQSITISCTGTSSDVGSYNLVSWYQQHPGKAPKLMIYEGSKRPSGVSNRFSGSKSGNTASLTISGLQAEDEADYYCSQYATFIAFAVFGGGTKLTVLG | ~2 |
| Fab Y022883 (Fab, V domains shown) VH: EVQLLESGGGLVQPGGSLRLSCAASGFSFTRYAISWVRQAPGKGLEWVSVISGHGSEANYAESVKGRFTISRDNSKNTLYLQMNSLRAEDTAVYYCARGFHYTHSGKRYYYPFDIWGQGTLVTVSS VL: QSALTQPASVSGSPGQSITISCTGTSSDVGSYNLVSWYQQHPGKAPKLMIYEGSKRPSGVSNRFSGSKSGNTASLTISGLQAEDEADYYCSQYATFIAFAVFGGGTKLTVLG | ~4 |
